Paper PMC6266874

Assays:
Test in all cases: GST-WRKY pull-down of BIK1-HA from leaf extract
Conditions in all cases: reference: wild type BIK1; sites S89,T90
[1] = molecular target: WRKY33 (UniProt Q8S8P5)
[2] = molecular target: WRKY50 (UniProt Q8VWQ5)
[3] = molecular target: WRKY57 (UniProt Q9C983)

Measured: binding against the reference

BIK1 (Botrytis-induced kinase 1) (from UniProt O48814) S89A/T90A
stronger: all assays above
